Here are results for two substances from patent publication US20160074473A1, “EFFECT OF PHOSPHOLIPID COMPOSITION OF RECONSTITUTED HDL ON ITS CHOLESTEROL EFFLUX AND ANTI-INFLAMMATORY PROPERTIES” (Kinemed, Inc., priority 2014, published 2016).

Where “and” joins values, the source holds several entries; their conditions need not be identical. Equal entries are not always repeated. Where two headings read alike, the source gives them in different places.

A short description of series [1]: Alpha-helical content by circular dichroism. It is filed as physicochemical. As for the experimental part: High-density lipoprotein-like 5A-POPC and 5A-SM complexes were prepared by a co-lyophilization procedure (25, 26). Peptide and phospholipids were dissolved in glacial acetic acid and mixed at 1:1.25 w/w ratio (approximately 1:7 molar ratio) and lyophilized. The powder was hydrated with bicarbonate buffered saline and cycled between 50° C. and room temperature to facilitate 5A-lipid binding. The resulting HDL complexes were analyzed by gel permeation chromatography, with UV detection at 220 nm, using Tosoh TSK gel G3000SWx1 column (Tosoh Bioscience, King of Prussia, Pa.). The HDL hydrodynamic diameters were determined by dynamic light scattering (DLS), using a Zetasizer Nano, Malvern Instruments (Westborough, Mass.). The number and intensity average values were reported. The alpha-helical contents of free and lipid bound 5A peptide were determined by Jasco J715 (Jasco, Easton, Md.) circular dichroism spectropolarimeter. Samples at 0.1 mg/mL concentration were loaded into a quartz cuvette (d=0.2-cm path length), and CD spectra from 185 to 240 nm were recorded at 24° C. […]
High-density lipoprotein-like 5A-POPC and 5A-SM complexes were prepared by a co-lyophilization procedure (25, 26). […] The resulting HDL complexes were analyzed by gel permeation chromatography, with UV detection at 220 nm, using Tosoh TSK gel G3000SWx1 column (Tosoh Bioscience, King of Prussia, Pa.). […]
On the technique in general: Circular dichroism is the unequal absorption of left and right circularly polarised light.

Series [2] has as its target T1, BHK cells stably transfected with human ABCG1 (Homo sapiens, UniProt P45844).
T1 construct: expressed in transfected cells; host or cells: BHK cells (stably transfected, mifepristone-inducible)
Kind of series: Cholesterol efflux assay in vitro, ABCG1. The class given is cell-based. The conditions noted are these: 18 h incubation. Here is the method:
(§1) Cholesterol efflux studies were performed, as described previously (25, 26). Briefly, BHK-mock and BHK stably transfected cells with human ABCA1 cDNA, ABCG1 cDNA and SR-BI cDNA were labeled for 24 h with 1 μCi/ml of ^3H-cholesterol in minimum essential medium medium plus 10% fetal calf serum. Transporters were induced with 10 nM mifepristone in Dulbecco's modified Eagle's medium (DMEM), containing 0.2 mg/ml of fatty acid-free bovine serum albumin for 18 h. Following induction of the transporters, the cells were washed and test articles were added at 0.1, 2.5, 5, 10, 20 and 40 μM in DMEM-BSA containing mifepristone. The cholesterol efflux by BSA, free 5A peptide, purified HDL, and ApoA-I were used as quality control standards. […] Radioactive counts in media and cell fractions were measured by liquid scintillation counting, and percent cholesterol effluxed was calculated by dividing media count by the sum of media and cell counts. […]
(§2) Cholesterol efflux studies were performed, as described previously (25, 26). […] Radioactive counts in media and cell fractions were measured by liquid scintillation counting, and percent cholesterol effluxed was calculated by dividing media count by the sum of media and cell counts.

In series [3] the target is T2, BHK cells stably transfected with human SR-BI (Homo sapiens, UniProt Q8WTV0).
T2 construct: expressed in transfected cells; host or cells: BHK cells (stably transfected, mifepristone-inducible)
T2 sequence (Q8WTV0 1-552): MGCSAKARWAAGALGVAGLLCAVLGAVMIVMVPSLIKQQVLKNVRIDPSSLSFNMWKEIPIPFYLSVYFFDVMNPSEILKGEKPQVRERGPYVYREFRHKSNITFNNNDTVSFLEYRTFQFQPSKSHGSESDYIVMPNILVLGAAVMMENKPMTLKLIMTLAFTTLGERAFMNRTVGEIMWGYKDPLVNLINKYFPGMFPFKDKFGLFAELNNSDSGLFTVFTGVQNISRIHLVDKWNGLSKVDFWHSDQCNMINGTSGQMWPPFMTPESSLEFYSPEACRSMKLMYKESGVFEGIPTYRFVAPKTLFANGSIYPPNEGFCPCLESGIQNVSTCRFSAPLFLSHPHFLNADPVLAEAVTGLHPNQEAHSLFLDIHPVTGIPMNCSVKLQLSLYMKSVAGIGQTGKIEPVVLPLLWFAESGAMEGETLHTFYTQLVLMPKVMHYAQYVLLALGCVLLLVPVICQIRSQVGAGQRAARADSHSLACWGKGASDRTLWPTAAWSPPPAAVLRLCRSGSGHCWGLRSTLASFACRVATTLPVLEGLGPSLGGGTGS
Description: Cholesterol efflux assay in vitro, SR-BI. It is filed as cell-based. The conditions noted are these: 18 h incubation. Here is the method:
as §1, §2

The conditions of series [4]: cited from earlier work.

For “DWLKAFYDKVAEKLKEAFPDWAKAAYDKAAEKAKEAA [5A, ApoA-I mimetic, 37-amino acid-long bi-helical peptide]”, in series [1] (Example 1, 0.1 mg/mL, 24° C.), the “Helicity (%)” value was 19% and 18.9%. Besides, the alpha-helix content in series [1] (Example 2, n=3, mean±SD) turned out to be 18.8±0.3%. The “cholesterol efflux via ABCG1” value in series [2] was “relatively low cholesterol efflux”. The “cholesterol efflux via SR-BI” value in series [3] is “relatively low cholesterol efflux”.

As for “apoA-I: the main protein in High Density Lipoprotein (HDL)”, the helicity result was “over 80%” in series [4] (associated with lipids) and “about 20%” in series [4] (lipid-free state).
